B1: IgG1-F890 (antibody)
heavy: QVQLQESGPGLVKPSETLSLTCAVSGHSISHDHAWSWVRQPPGEGLEWIGFISYSGITNYNPSLQGRVTISRDNSKNTLYLQMNSLRAEDTAVYYCARSLARTTAMDYWGEGTLVTVSSASTKGPSVFPLAPSSKSTSGGTAALGCLVKDYFPEPVTVSWNSGALTSGVHTFPAVLQSSGLYSLSSVVTVPSSSLGTQTYICNVNHKPSNTKVDKKVEPKSCDKTHTCPPCPAPELLGGPSVFLFPPKPKDTLYISRTPEVTCVVVDVSHEDPEVKFNWYVDGVEVHNAKTKPREEQYNSTYRVVSVLTVLHQDWLNGKEYKCKVSNKALPAPIEKTISKAKGQPREPQVYTLPPSRDELTKNQVSLTCLVKGFYPSDIAVEWESNGQPENNYKTTPPVLDSDGSFFLYSKLTVDKSRWQQGNVFSCSVMHEALHYHVTQKSLSLSP
light: not shown
notes: copies: 2 + 2
B2: IgG1-F764 (antibody)
heavy: B1 heavy with P240D, Y254M, T309Q, Q313A, V438Y
light: not shown
notes: EU numbering; copies: 2 + 2
B3: IgG1-F781 (antibody)
heavy: B1 heavy with S377A, V438Y
light: not shown
notes: EU numbering; copies: 2 + 2
B4: IgG1-F767 (antibody)
heavy: B1 heavy with Y254M, T309Q, L311E, Q313A, V438Y
light: not shown
notes: EU numbering; copies: 2 + 2
B5: IgG1-F777 (antibody)
heavy: B1 heavy with E347A, V438Y
light: not shown
notes: EU numbering
B6: IgG1-F762 (antibody)
heavy: B1 heavy with L237K, S241K, N288E, T309Q, Q313A, V438Y
light: not shown
notes: EU numbering; copies: 2 + 2
B7: IgG1-F750 (antibody)
heavy: B1 heavy with P240D, T252M, V438Y
light: not shown
notes: EU numbering; copies: 2 + 2
B8: IgG1-F749 (antibody)
heavy: B1 heavy with P240D, T252L, V438Y
light: not shown
notes: EU numbering; copies: 2 + 2
B9: IgG1-F757 (antibody)
heavy: B1 heavy with P240D, T252W, V438Y
light: not shown
notes: EU numbering; copies: 2 + 2
B10: IgG1-F792 (antibody)
heavy: B1 heavy with N317G, V438Y
light: not shown
notes: EU numbering; copies: 2 + 2
B11: IgG1-F789 (antibody)
heavy: B1 heavy with N317D, V438Y
light: not shown
notes: EU numbering; copies: 2 + 2
B12: IgG1-F771 (antibody)
heavy: B1 heavy with E274A, V438Y
light: not shown
notes: EU numbering; copies: 2 + 2
B13: IgG1-F785 (antibody)
heavy: B1 heavy with L311H, V438Y
light: not shown
notes: EU numbering; copies: 2 + 2
B14: IgG1-F779 (antibody)
heavy: B1 heavy with N363A, V438Y
light: not shown
notes: EU numbering; copies: 2 + 2
B15: IgG1-F770 (antibody)
heavy: B1 heavy with T258A, V438Y
light: not shown
notes: EU numbering; copies: 2 + 2
B16: IgG1-F790 (antibody)
heavy: B1 heavy with N317E, V438Y
light: not shown
notes: EU numbering; copies: 2 + 2
B17: IgG1-F794 (antibody)
heavy: B1 heavy with N317K, V438Y
light: not shown
notes: EU numbering; copies: 2 + 2
B18: IgG1-F774 (antibody)
heavy: B1 heavy with N288A, V438Y
light: not shown
notes: EU numbering; copies: 2 + 2
B19: IgG1-F796 (antibody)
heavy: B1 heavy with N317M, V438Y
light: not shown
notes: EU numbering; copies: 2 + 2
B20: IgG1-F795 (antibody)
heavy: B1 heavy with N317L, V438Y
light: not shown
notes: EU numbering; copies: 2 + 2
B21: IgG1-F786 (antibody)
heavy: B1 heavy with S256T, N288E, T309Q, Q313A, V438Y
light: not shown
notes: EU numbering; copies: 2 + 2
B22: IgG1-F772 (antibody)
heavy: B1 heavy with K276A, V438Y
light: not shown
notes: EU numbering; copies: 2 + 2
B23: IgG1-F763 (antibody)
heavy: B1 heavy with L237R, S241K, N288E, T309Q, Q313A, V438Y
light: not shown
notes: EU numbering; copies: 2 + 2
B24: IgG1-F751 (antibody)
heavy: B1 heavy with P240D, T252N, V438Y
light: not shown
notes: EU numbering; copies: 2 + 2
B25: IgG1-F746 (antibody)
heavy: B1 heavy with P240D, T252H, V438Y
light: not shown
notes: EU numbering; copies: 2 + 2
B26: IgG1-F766 (antibody)
heavy: B1 heavy with Y254M, T309A, L311E, Q313A, V438Y
light: not shown
notes: EU numbering; copies: 2 + 2
B27: IgG1-F769 (antibody)
heavy: B1 heavy with Y254M, T309Q, L311E, Q313H, V438Y
light: not shown
notes: EU numbering; copies: 2 + 2
B28: IgG1-F758 (antibody)
heavy: B1 heavy with P240D, T252Y, V438Y
light: not shown
notes: EU numbering; copies: 2 + 2
B29: IgG1-F787 (antibody)
heavy: B1 heavy with S256T, T309Q, L311E, Q313A, V438Y
light: not shown
notes: EU numbering; copies: 2 + 2
B30: IgG1-F793 (antibody)
heavy: B1 heavy with N317I, V438Y
light: not shown
notes: EU numbering; copies: 2 + 2
B31: IgG1-F765 (antibody)
heavy: B1 heavy with P240D, T309Q, L311E, Q313A, V438Y
light: not shown
notes: EU numbering; copies: 2 + 2
B32: IgG1-F753 (antibody)
heavy: B1 heavy with P240D, T252Q, V438Y
light: not shown
notes: EU numbering; copies: 2 + 2
B33: IgG1-F776 (antibody)
heavy: B1 heavy with K342A, V438Y
light: not shown
notes: EU numbering; copies: 2 + 2
B34: IgG1-F780 (antibody)
heavy: B1 heavy with Q364A, V438Y
light: not shown
notes: EU numbering; copies: 2 + 2
B35: IgG1-F775 (antibody)
heavy: B1 heavy with K340A, V438Y
light: not shown
notes: EU numbering; copies: 2 + 2
B36: IgG1-F756 (antibody)
heavy: B1 heavy with P240D, T252V, V438Y
light: not shown
notes: EU numbering; copies: 2 + 2
B37: IgG1-F788 (antibody)
heavy: B1 heavy with N317A, V438Y
light: not shown
notes: EU numbering; copies: 2 + 2
B38: IgG1-F784 (antibody)
heavy: B1 heavy with L311A, V438Y
light: not shown
notes: EU numbering; copies: 2 + 2
B39: IgG1-F798 (antibody)
heavy: B1 heavy with N317Q, V438Y
light: not shown
notes: EU numbering; copies: 2 + 2
B40: IgG1-F747 (antibody)
heavy: B1 heavy with P240D, T252I, V438Y
light: not shown
notes: EU numbering; copies: 2 + 2
B41: IgG1-F782 (antibody)
heavy: B1 heavy with Y393A, V438Y
light: not shown
notes: EU numbering; copies: 2 + 2
B42: IgG1-F773 (antibody)
heavy: B1 heavy with V284A, V438Y
light: not shown
notes: EU numbering; copies: 2 + 2
B43: IgG1-F799 (antibody)
heavy: B1 heavy with N317R, V438Y
light: not shown
notes: EU numbering; copies: 2 + 2
B44: IgG1-F783 (antibody)
heavy: B1 heavy with D415A, V438Y
light: not shown
notes: EU numbering; copies: 2 + 2
B45: IgG1-F768 (antibody)
heavy: B1 heavy with Y254M, T309A, L311E, Q313H, V438Y
light: not shown
notes: EU numbering; copies: 2 + 2
B46: IgG1-F733 (antibody)
heavy: B1 heavy with L330E, V438Y
light: not shown
notes: EU numbering; copies: 2 + 2
B47: IgG1-F737 (antibody)
heavy: B1 heavy with S269L, L330E, V438Y
light: not shown
notes: EU numbering; copies: 2 + 2
B48: IgG1-F736 (antibody)
heavy: B1 heavy with S269M, L330E, V438Y
light: not shown
notes: EU numbering; copies: 2 + 2
B49: IgG1-F741 (antibody)
heavy: B1 heavy with P240D, T252A, V438Y
light: not shown
notes: EU numbering; copies: 2 + 2
B50: IgG1-F739 (antibody)
heavy: B1 heavy with T309P, Q313A, V438Y
light: not shown
notes: EU numbering; copies: 2 + 2
B51: IgG1-F745 (antibody)
heavy: B1 heavy with P240D, T252G, V438Y
light: not shown
notes: EU numbering; copies: 2 + 2
B52: IgG1-F734 (antibody)
heavy: B1 heavy with G238D, L330E, V438Y
light: not shown
notes: EU numbering; copies: 2 + 2
B53: IgG1-F740 (antibody)
heavy: B1 heavy with T309P, Q313H, V438Y
light: not shown
notes: EU numbering; copies: 2 + 2
B54: IgG1-F738 (antibody)
heavy: B1 heavy with P240D, T309P, V438Y
light: not shown
notes: EU numbering; copies: 2 + 2
B55: IgG1-F744 (antibody)
heavy: B1 heavy with P240D, T252F, V438Y
light: not shown
notes: EU numbering; copies: 2 + 2

The values that follow come from US20200199241A1 (Chugai, published 2020).

Numbering of substitutions follows the chain as printed.

T1 sequence (chain, as listed by the source limits assumed, chain 1 of 2): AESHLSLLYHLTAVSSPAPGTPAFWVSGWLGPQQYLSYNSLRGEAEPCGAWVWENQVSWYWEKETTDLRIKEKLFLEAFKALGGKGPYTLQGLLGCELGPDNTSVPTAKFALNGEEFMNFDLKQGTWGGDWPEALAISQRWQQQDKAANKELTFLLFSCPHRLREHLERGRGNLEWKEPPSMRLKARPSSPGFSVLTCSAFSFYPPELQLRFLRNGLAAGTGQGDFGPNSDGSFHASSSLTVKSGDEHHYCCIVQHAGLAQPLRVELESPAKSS
T1 sequence (P61769 21-119 limits assumed, chain 2 of 2): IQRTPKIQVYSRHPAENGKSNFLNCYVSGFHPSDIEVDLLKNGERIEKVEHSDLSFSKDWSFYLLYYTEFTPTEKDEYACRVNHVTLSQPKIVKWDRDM

One assay addresses T1, soluble human FcRn complexed with β2-microglobulin (human, UniProt P61769 21-119, limits assumed).
T1 construct: also called hFcRn
Briefly: Biacore SPR, pH 7.0.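 Further: test antibodies captured on a Protein L chip with human FcRn flowed over as analyte, KD obtained as the ratio of dissociation to association rate constants.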
The term Kd denotes a measure of binding affinity in units of concentration. Higher therefore signals weaker binding. B1 returned an equilibrium dissociation constant (Kd) of 110 nM. B2 had a Kd of 630 nM.

Regarding B3, the Kd turned out to be 370 nM. B4 returned an equilibrium dissociation constant (Kd) of 430 nM. In turn, B5 showed a Kd of 390 nM.

B6 registered a Kd of 36 nM.

As to B7, the Kd was 300 nM. B8 gave a Kd of 510 nM.

For B9, binding was put at a Kd of 1200 nM. The molecule B10 gave a dissociation constant (Kd) of 440 nM.

B11 displayed a Kd of 150 nM.

For the molecule B12, the Kd amounted to 400 nM. The same measure, in the same setting: the result for B13 reads 740 nM; that for B14, 390 nM; that for B15, 500 nM.

With B16, the dissociation constant (Kd) came to 270 nM.

For the molecule B17, the equilibrium dissociation constant (Kd) is 410 nM. The same measure, in the same setting: the result for B18 reads 400 nM; that for B19, 340 nM.

Molecule B20 displayed a Kd of 310 nM. Regarding B21, binding was characterised by a dissociation constant (Kd) of 28 nM. Molecule B22 registered a Kd of 380 nM.

The molecule B23 registered an equilibrium dissociation constant (Kd) of 35 nM. Same read-out and setting: the result for B24 reads 530 nM; that for B25, 600 nM; that for B26, 600 nM. Still for that read-out and setting: with B27 the figure was 460 nM. Still for that read-out and setting: the result for B28 reads 1400 nM; that for B29, 88 nM; that for B30, 330 nM. In turn, B31 had a Kd of 85 nM. Regarding B32, the dissociation constant (Kd) came out at 180 nM.

Turning to B33, the Kd was found to be 390 nM. For B34, binding was characterised by a dissociation constant (Kd) of 390 nM. Turning to B35, the Kd was 620 nM. As to B36, the Kd was 370 nM. As to B37, the affinity, expressed as Kd, was 410 nM.

B38 showed a Kd of 500 nM. Regarding B39, the Kd turned out to be 350 nM. In turn, B40 returned an equilibrium dissociation constant (Kd) of 280 nM. B41 displayed a Kd of 350 nM.

B42 registered a Kd of 390 nM. B43 returned a Kd of 410 nM. The molecule B44 showed a Kd of 400 nM. B45 showed an equilibrium dissociation constant (Kd) of 640 nM.

The target of a further assay is T2, human FcRn (soluble human FcRn complexed with β2-microglobulin) (human, UniProt P61769 21-119, limits assumed).
T2 construct: also called hFcRn
T2 sequence (chain, as listed by the source limits assumed, chain 1 of 2): as the sequence (chain, as listed by the source limits assumed, chain 1 of 2) above
T2 sequence (P61769 21-119 limits assumed, chain 2 of 2): as the sequence (P61769 21-119 limits assumed, chain 2 of 2) above
The experiment in a line: SPR, pH 7.0.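 Further: antibodies captured on a Protein L sensor chip with human FcRn injected as analyte, KD calculated from fitted association and dissociation rate constants.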
Take B46: the dissociation constant (Kd) worked out at 320 nM. B47 yielded a Kd of 310 nM.

In turn, B48 gave a Kd of 310 nM. Still for that read-out and setting: the result for B49 reads 310 nM; that for B50, 220 nM. B51 registered a Kd of 660 nM. In turn, B52 registered a Kd of 310 nM. Regarding B53, binding was characterised by a dissociation constant (Kd) of 290 nM.

Take B54: binding was put at a Kd of 350 nM. B55: the Kd is 990 nM.
